US20170355765A1 (published 2017)

Target: T1, human TEM8 expressed on CHO or HEK 293 cells (human, UniProt Q9H6X2 33-564)
T1 construct: also called hTEM8; CHO TEM8
Assay: binding to CHO cells expressing human TEM8

T1 sequence (Q9H6X2 33-564 limits assumed): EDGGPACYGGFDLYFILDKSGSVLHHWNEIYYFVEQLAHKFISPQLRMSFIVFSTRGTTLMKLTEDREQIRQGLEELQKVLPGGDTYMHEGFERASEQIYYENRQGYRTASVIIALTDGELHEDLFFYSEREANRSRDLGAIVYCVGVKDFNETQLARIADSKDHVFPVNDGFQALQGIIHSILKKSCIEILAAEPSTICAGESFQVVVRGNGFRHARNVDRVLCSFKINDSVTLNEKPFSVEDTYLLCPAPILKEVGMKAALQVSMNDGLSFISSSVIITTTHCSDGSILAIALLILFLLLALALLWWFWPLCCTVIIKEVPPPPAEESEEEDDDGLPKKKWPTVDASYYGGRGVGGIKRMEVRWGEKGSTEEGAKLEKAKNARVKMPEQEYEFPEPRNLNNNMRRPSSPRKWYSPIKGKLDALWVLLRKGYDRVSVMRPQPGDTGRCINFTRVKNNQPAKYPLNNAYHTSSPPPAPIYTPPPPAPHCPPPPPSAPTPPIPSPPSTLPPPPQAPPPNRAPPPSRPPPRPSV

B1: antibody drug conjugate including the m825 antibody (in human IgG1 format) conjugated to MMAE (other)
VH: QVQLVQSGAEVKKPGTSVKVSCKVPGYTFSSYAISWVRQAPGQGLEWMGGIIPIFGTTNYAQKFQGRVTITGEESTSTVYMELSSLRSEDTAVYYCARDTDYMFDYWGQGTLVTVSS
VL: SSELTQDPVVSVALGETVSITCQGDNLRDFYASWYQQKPGQAPLLVMYGKNRRPSGIPDRFSGSTSGNTLSLTITGAQAEDEADYYCSSRDNSKHVVFGGGTKVTVL
modifications: MMAE toxin with stretcher unit, Val-Cit peptide cleavage site and spacer, linked to thiol groups formed by partial reduction of inter-chain disulfide bonds (positions not stated)
notes: also called m825-MMAE; m825-MMAE conjugate
- binding result: binds
